Assay results as given in patent publication US20140235820A1, “METHODS AND COMPOSITIONS FOR MODULATING THE Wnt PATHWAY” (Genentech, Inc., priority 2010, published 2014).

Legend:
LRP6 E1E2 = target: T1, LRP6 E1E2 (Homo sapiens, UniProt O75581); experiment: Competition phage ELISA, peptide affinity for LRP6 E1E2; assay type: binding; conditions: relative to Dkk1 peptide
T1 construct: construct E1E2-amino acids A20-E631 of LPR6; made in house; host or cells: Tni insect cells (baculovirus, secreted)
T1 sequence (O75581 20-631): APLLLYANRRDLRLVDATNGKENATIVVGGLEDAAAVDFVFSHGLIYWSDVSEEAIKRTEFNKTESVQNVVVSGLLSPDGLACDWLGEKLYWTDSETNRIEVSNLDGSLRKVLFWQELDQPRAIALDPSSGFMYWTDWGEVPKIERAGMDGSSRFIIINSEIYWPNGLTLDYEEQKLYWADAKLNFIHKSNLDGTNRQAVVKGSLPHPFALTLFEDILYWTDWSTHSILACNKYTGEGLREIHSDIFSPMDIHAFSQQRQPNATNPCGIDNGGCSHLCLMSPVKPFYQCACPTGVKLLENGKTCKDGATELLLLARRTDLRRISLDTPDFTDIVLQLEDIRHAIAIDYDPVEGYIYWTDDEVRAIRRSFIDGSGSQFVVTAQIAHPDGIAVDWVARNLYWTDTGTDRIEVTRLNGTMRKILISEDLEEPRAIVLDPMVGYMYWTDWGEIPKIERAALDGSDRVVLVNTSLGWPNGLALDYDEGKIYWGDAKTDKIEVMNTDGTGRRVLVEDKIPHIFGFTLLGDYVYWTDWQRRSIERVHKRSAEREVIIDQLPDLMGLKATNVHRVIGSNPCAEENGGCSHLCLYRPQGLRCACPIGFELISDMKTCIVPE
Procedure: Peptide affinities were also determined by competition with phage displaying a binding peptide (competition phage ELISA). Serial dilutions of test peptide were mixed with an appropriate (non-saturating) concentration of phage before exposing the mixture to target and allowing it to reach equilibrium. After washing to remove unbound material, bound phage were detected by incubation with anti-M13 antibody-horseradish peroxidase (HRP) conjugate and exposure to a suitable colorometric HRP substrate.
Seven-residue peptides from Dkk1 and Sost were synthesized by standard Fmoc procedures. FIG. 7B. These peptides include the “NXI” motif described above. Affinities of the peptides for LRP6 E1E2 were determined by competition phage ELISA (41). […] To understand the detailed interactions of the peptides with LRP6, we determined high-resolution co-crystal structures of the peptides bound to the LRP6 E1 β-propeller. Structures were determined by molecular replacement and refined to 1.9 and 1.5 Å resolution for Dkk1 and Sost peptides, respectively (FIG. 8). Remarkably, the peptides show very similar bound-state conformations compared to the antibody loop, in each case placing the key asparagine side chain in position for the “handshake” interaction described above. Peptide isoleucine residues occupy the hydrophobic pocket where the valine side chain of the antibody loop interacts. […]

[1] = target: T2, human LRP6 construct E4 (T933-Q1253) (human, UniProt O75581 933-1253, biotinylated for biolayer interferometry); experiment: BLI, biotinylated LRP6 on streptavidin tips
T2 construct: range 933-1253; also called LRP6 E4
T2 sequence (looked up): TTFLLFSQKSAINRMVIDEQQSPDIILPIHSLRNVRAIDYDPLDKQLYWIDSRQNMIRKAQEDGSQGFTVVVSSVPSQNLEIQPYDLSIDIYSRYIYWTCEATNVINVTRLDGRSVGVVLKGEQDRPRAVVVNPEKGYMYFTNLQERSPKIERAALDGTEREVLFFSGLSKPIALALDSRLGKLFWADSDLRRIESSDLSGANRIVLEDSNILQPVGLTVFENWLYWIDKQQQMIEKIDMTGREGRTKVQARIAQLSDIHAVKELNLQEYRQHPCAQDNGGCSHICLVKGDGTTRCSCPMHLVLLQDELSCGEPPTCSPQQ
Procedure: (§1) Binding kinetics were measured by biolayer interferometry using an Octet Red instrument (ForteBio) as previously described (11). Streptavidin (SA) biosensors were loaded with biotinylated hLRP6 in 50 mMTris, pH 8, 300 mM NaCl, 5% (v/v) glycerol, and 0.05% (w/v) Triton X-100. The loaded biosensors were washed in the same buffer before carrying out association and dissociation measurements for the indicated times. The Kd of each interaction was determined using steady state-analysis through the Octet Red software v6.3. Each reported value represents an average of three or more experiments at different concentrations, with a fitted experimental curve for which the square of the correlation coefficient (R²) is above 0.96.
(§2) Purified receptors contained individual β-propeller-EGF-like units (E1, E2, or E4), two β-propellers (E1E2 or E3E4), or four β-propellers (E1E4))—as follows: […]

[2] = target: T3, human LRP6 construct E3E4 (amino acids E631-Q1253) (human, UniProt O75581 631-1253, biotinylated for biolayer interferometry); experiment: BLI, biotinylated LRP6 on streptavidin tips
T3 construct: range 631-1253; also called LRP6 E3E4
T3 sequence (looked up): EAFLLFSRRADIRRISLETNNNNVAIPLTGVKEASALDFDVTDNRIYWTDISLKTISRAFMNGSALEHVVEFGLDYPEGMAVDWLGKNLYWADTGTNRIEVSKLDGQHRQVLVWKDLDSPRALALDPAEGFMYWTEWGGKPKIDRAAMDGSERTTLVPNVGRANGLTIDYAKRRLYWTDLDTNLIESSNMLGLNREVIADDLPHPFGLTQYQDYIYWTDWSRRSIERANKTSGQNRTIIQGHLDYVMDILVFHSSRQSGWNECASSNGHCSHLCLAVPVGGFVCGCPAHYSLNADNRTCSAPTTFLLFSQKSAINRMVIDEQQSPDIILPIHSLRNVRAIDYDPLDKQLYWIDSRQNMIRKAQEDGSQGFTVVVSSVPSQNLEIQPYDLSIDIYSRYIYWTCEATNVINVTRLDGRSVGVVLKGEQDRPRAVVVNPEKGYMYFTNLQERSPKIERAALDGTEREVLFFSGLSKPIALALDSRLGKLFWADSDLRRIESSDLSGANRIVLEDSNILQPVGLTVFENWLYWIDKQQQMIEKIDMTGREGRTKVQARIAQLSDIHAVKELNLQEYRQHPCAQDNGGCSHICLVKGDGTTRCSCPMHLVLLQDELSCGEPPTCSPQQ
Procedure: as §1, §2

LRP6 E1E2 Asn185Ser = target: T4, LRP6 E1E2 Asn185Ser (human, UniProt O75581 20-631); experiment: BLI steady-state affinity
T4 construct: range 20-631; also called LRP6 E1E2 N185S (analogue of LRP5 BMD mutation Asn198Ser)
T4 sequence (looked up): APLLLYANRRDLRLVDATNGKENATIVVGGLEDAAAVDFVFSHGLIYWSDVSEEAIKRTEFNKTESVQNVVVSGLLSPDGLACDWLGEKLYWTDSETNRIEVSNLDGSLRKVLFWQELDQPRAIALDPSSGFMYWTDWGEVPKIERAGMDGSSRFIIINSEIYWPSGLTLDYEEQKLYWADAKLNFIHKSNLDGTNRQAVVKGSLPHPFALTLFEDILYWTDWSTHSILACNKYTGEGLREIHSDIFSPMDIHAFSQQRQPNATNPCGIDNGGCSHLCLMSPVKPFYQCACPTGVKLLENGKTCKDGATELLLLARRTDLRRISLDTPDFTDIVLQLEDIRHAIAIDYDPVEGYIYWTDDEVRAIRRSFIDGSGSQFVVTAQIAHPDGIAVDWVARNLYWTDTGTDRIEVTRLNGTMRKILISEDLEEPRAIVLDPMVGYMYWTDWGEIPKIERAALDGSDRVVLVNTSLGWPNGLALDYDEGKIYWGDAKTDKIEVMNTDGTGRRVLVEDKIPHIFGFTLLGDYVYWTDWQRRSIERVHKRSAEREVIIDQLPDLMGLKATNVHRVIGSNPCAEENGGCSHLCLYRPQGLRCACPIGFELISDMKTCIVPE
Procedure: as §1

LRP6 E1E2 Arg141Met = target: T5, LRP6 E1E2 Arg141Met (human, UniProt O75581 20-631); experiment: BLI steady-state affinity
T5 construct: range 20-631; also called LRP6 E1E2 R141M
T5 sequence (looked up): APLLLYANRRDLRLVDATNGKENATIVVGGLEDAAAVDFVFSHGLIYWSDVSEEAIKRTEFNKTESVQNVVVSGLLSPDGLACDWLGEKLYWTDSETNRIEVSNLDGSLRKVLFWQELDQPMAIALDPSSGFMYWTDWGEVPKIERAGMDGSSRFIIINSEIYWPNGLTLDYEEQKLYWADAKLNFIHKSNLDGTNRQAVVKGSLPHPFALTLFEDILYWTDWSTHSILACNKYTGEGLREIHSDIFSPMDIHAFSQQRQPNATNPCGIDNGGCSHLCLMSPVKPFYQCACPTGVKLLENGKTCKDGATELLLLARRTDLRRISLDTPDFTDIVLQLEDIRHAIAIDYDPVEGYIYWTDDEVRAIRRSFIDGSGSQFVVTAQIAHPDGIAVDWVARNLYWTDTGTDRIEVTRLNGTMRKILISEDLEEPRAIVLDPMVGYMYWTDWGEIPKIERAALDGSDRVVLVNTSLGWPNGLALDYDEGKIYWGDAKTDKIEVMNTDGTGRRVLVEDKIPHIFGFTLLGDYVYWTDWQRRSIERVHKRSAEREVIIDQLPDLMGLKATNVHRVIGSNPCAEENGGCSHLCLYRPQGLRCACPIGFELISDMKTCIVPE
Procedure: as §1

## Ac-LPNAIGR-NH2 (N-terminus and C-terminus assumed) [sclerostin peptide]
LRP6 E1E2
  binds more weakly than the Dkk1 peptide: about 10 fold

B1: Sclerostin (wild type) (ligand, UniProt Q9BQB4 24-213, looked up)
chain: QGWQAFKNDATEIIPELGEYPEPPPELENNKTMNRAENGGRPPHHPFETKDVSEYSCRELHFTRYVTDGPCRSAKPVTELVCSGQCGPARLLPNAIGRGKWWRPSGPDFRCIPDRYRAQRVQLLCPGGEAPRARKVRLVASCKCKRLTRFHNQSELKDFGTEAARPQKGRKPRPRARSAKANQAELENAY
notes: also called SOST; Sost
[1]
  binding result: no binding
[2]
  binding result: no binding
LRP6 E1E2 Asn185Ser
  fold loss in affinity against wild-type LRP6 E1E2: 59 fold
LRP6 E1E2 Arg141Met
  fold loss in affinity against wild-type LRP6 E1E2: 31 fold
